Test results as given in patent USRE44389.

Experiments:
[1] = molecular target: Fcγ receptors on monocytes (human blood); assay: FACS on human monocytes, antibody 10 µg/ml; negative control
[2] = molecular target: Fcγ receptors on monocytes (human blood); assay: FACS on human monocytes, antibody 10 µg/ml
[3] = molecular target: Fcγ receptors on granulocytes (human blood); assay: FACS on human granulocytes, antibody 10 µg/ml

Substance	% monocytes binding antibody [1]	% monocytes binding antibody [2]	% granulocytes binding antibody [3]
Human IgG4 (CLB, the Netherlands), negative control (antibody)	9.4%		
HuMab 002 Fc variant IgG4v1 (S228P; L235E) (antibody)		14.5%	1.6%
